# According to patent US5814603A, “Compounds with PTH activity” (Affymax Technologies N.V., priority 1993, dated 1998):
# Ends that are not written are not given here.
# What was measured:
# [1] = molecular target: T1, full length PTH-R (Didelphis virginiana, UniProt P25107); settings: native opossom kidney cells; Juppner et al. (1991); cited from earlier work
# T1 construct: host or cells: native opossum kidney cells
# [2] = molecular target: T2, PTH receptor (Rattus norvegicus, UniProt P25961); experiment: PTH analog activity assay: intracellular cAMP concentration in UMR106 cells; assay type: cell-based; settings: rat osteosarcoma cell line UMR106, cAMP by scintillation proximity assay, 1 mM IBMX, 5 minutes at room temperature
# T2 construct: host or cells: UMR106 rat osteosarcoma cells
# T2 sequence (P25961 27-591): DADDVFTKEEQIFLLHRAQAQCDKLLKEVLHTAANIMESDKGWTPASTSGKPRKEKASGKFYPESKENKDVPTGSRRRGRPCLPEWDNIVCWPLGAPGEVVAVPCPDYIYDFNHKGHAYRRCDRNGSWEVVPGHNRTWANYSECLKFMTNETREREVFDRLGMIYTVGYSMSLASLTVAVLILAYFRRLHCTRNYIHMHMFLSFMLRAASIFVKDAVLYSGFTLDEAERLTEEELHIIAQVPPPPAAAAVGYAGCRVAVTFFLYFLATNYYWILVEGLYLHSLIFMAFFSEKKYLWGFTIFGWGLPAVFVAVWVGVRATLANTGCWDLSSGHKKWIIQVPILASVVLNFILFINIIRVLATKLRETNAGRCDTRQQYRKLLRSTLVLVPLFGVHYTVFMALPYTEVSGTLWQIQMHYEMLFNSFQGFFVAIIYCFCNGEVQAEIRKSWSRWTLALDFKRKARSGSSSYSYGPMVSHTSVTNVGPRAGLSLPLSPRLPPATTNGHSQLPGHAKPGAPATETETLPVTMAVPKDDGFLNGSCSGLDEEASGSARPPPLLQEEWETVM
# Protocol: PTH concentrations were determined by OD280 using an extinction coefficient of 6600 for the recombinant peptide and 5500 for the synthetic peptide. The rat osteosarcoma cell line UMR106 (ATCC CRL 1661) was used for in vitro testing of the peptide's ability to activate the PTH receptor. Activation of the PTH receptor leads to an intracellular rise in cAMP concentration.
# The UMR106 cells were plated at 1.2×10^5 per well in a 48 well dish. The media (DMEM with fetal calf serum) was removed, and 1 mL of fresh media was applied. PTH (recombinant or synthetic) at various concentrations and 3-isobutyl-1-methyl xanthine (IBMX) at 1 mM final concentration were then added to each well of the plate, which was then incubated for 5 minutes at room temperature. The media was then removed and the cells quickly washed with PBS. The cells were then extracted three times with 1 mL of absolute ethanol. The three extractions were combined and the ethanol removed by evaporation in a "speed vac" centrifuge. The extract was then redissolved in 0.5 mL of buffer (0.05M NaAcetate, pH=5.8, and 0.01% azide). The cAMP concentration was determined by scintillation proximity assay using a kit available from Amersham.
# [3] = Isoelectric focusing (IEF) of the purified peptide; assay type: physicochemical; settings: HPLC-purified peptide after CNBr cleavage
# Protocol: The precipitated PTH polymer was then dissolved in 70% formic acid, and a 500-fold (100 to 1000-fold excess can be used) molar excess of CNBr was added. […] After CNBr cleavage, the peptides were lyophilized and resuspended in distilled water. The peptide was purified resuspended in Buffer A (0.1% TFA) and further purified by HPLC using a VYDAC C-18 Hamilton semi-preparative column. Approximately 30 mg of peptide was injected onto the column. The peptide was then eluted with a gradient of 20-40% acetonitrile/0.1% TFA over 40 minutes. The major peak, eluting at approximately 15 minutes, was collected and lyophilized to dryness. Analysis of this peptide by SDS-PAGE and IEF indicated a single species of approximately 4000 daltons with an isoelectric point of approximately 8.7.
# T1 sequence (P25107 27-585): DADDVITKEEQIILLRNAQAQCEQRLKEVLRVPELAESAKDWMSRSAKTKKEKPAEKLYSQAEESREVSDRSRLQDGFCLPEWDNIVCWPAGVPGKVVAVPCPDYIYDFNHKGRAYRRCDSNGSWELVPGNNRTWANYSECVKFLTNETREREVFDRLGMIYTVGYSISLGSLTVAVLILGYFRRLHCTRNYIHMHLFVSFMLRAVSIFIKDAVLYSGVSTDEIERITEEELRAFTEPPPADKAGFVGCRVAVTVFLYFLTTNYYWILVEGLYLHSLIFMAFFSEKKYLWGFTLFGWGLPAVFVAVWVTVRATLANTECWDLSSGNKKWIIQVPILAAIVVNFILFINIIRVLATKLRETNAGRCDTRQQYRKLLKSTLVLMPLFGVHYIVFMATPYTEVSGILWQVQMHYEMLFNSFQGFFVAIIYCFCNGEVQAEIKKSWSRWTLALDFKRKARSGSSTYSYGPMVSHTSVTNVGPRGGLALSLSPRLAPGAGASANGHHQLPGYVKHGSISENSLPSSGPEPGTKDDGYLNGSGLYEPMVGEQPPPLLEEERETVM
Substance,Kd [1] [nM],activity relative to synthetic human PTH (more active) [2],isoelectric point [3]
"PTH (1-34): PTH ligand bound by the native full length PTH receptor, per Juppner et al. 1991",~0.5,–,–
recombinant PTH analog: 35 amino acid Ho/Hol PTH analog (SEQ ID NO:4/5) from CNBr cleavage of 8-mer fusion protein expressed from pBAD/PTH/OC in E. coli (SVSEIQLLHNLGKHLNSLERVEWLRKKLQDVHNYX; X: randomised place (mixture); also: X35: homoserine or homoserine lactone (mixture)),–,2-to-10 fold,approximately 8.7
